Data reported in patent US20210032351A1 (XDCEXPLORER SHANGHAI, published 2021).
Residue numbers refer to the chain shown, from its start. Each block holds one binder with its values, some of them ahead of it.

Legend:
[1] = biological target: T1, wild-type EGFR protein on the surfaces of A431 tumor cells and normal human primary hepatocytes (human, UniProt P00533 25-1210); test: FACS, A431 tumor cells
T1 construct: whole, on cells; Same protein on two cell types; also called human epidermal growth factor receptor; her-1
Procedure: (§1) The preparation of U87MG-EGFRvIII required for FACS detection is as described in the preparation of the immunogen B in example 1. Normal human primary hepatocytes are purchased from BioreclamationIVT, and A431 tumor cells are purchased from ATCC. The recovered hepatocytes are directly used for FACS detection, and the recovered U87MG-EGFRvIII and A431 cells are subjected to an expanded culture to 90% confluence in a T-75 cell culture flask; the medium is sucked out, and the cells are washed twice with a HBSS buffer (Hanks Balanced Salt Solution) (purchased from Invitrogen), and then treated with an enzyme-free cell dissociation solution (Versene solution: purchased from Life Technology) and collected. The cells are washed twice with the HBSS buffer and are counted, and then the cells are diluted with the HBSS buffer to 2×10⁶ cells/ml, added with 1% goat serum blocking solution, with the percentage being the mass percentage, and incubated on ice for 30 minutes, and then centrifugally washed twice with the HBSS buffer. The collected cells are resuspended to 2×10⁶ cells/mL with an FACS buffer (HBSS+2% FBS, with the percentage being the volume percentage), added to a 96-well FACS reaction plate at 100 μL/well, then added with 100 μL/well of the purified EGFRvIII antibody (samples to be tested) obtained in example 12, and incubated on ice for 2 hours. The plate is centrifugally washed twice with the FACS buffer, added with 100 μL/well of a 1:1000 diluted fluorescence (Alexa 488) labeled secondary antibody (purchased from Invitrogen), and incubated on ice for 1 hour. The plate is centrifugally washed 3 times with the FACS buffer, added with 100 μL/well of a fixing solution [4% (v/v) paraformaldehyde] to resuspend the cells, and centrifugally washed twice with the FACS buffer after 10 minutes. The cells are resuspended in 100 μL of the FACS buffer, and the results are detected and analyzed by FACS (FACS Calibur, purchased from BD). Data analysis is performed by using the software (CellQuest) to obtain the mean fluorescence intensity (MFI) of the cells. Data is further analyzed by using the software (GraphPad Prism5) to perform data fitting and calculate EC50.

[2] = biological target: T1, wild-type EGFR protein on the surfaces …; test: FACS, normal human primary hepatocytes
Procedure: as §1

[3] = biological target: T1, wild-type EGFR protein on the surfaces …; test: FACS, MFI on A431 cells over MFI on normal primary hepatocytes
Procedure: as §1

[4] = biological target: human EGFRvIII-hFc protein (human) (UniProt P00533); test: ELISA, EGFRvIII-hFc coated
[5] = biological target: human EGFRvIII protein on the cell surface (human) (UniProt P00533); test: FACS on U87MG-EGFRvIII cells
[6] = biological target: T2, human EGFRvIII-hFc protein (human, UniProt P00533 25-645); test: ELISA, EGFRvIII-hFc coated
T2 construct: extracellular domain; also called immunogen A; hFc-tagged EGFRvIII protein; not shown: human IgG Fc fragment (hFc) of the pCpC vector
Procedure: The purified humanized anti-EGFRvIII antibody obtained in example 12 is reacted with a human EGFRvIII-hFc protein.
The purified immunogen A (EGFRvIII-hFc) obtained in example 1 (for the preparation method, see step (I) in example 1) is diluted with PBS to a final concentration of 1.0 μg/mL, and then added to a 96-well ELISA plate at 100 μl/well. The plate is sealed with a plastic film and incubated at 4° C. overnight. The next day, the plate is washed twice with a plate washing solution [PBS+0.01% (v/v) Tween20], and added with a blocking solution [PBS+0.01% (v/v) Tween20+1% (w/w) BSA] for blocking 2 hours at room temperature. […] The plate is incubated for 2 hours at 37° C., and then washed 3 times with the plate washing solution [PBS+0.01% (v/v) Tween20]. The plate is added with an HRP (horseradish peroxidase) labeled secondary antibody (purchased from Sigma), incubated at 37° C. for 2 hours, and then washed 3 times with the plate washing solution [PBS+0.01% (v/v) Tween20]. The plate is added with 100 μl of TMB substrate/well, incubated for 30 minutes at room temperature, and then added with 100 μl of stopping solution (1.0N HCl)/well. A450 nm value is read using an ELISA plate reader (SpectraMax 384plus, purchased from Molecular Device).

[7] = biological target: T3, human EGFRvIII protein on the cell surface (human, UniProt P00533 25-1210); test: FACS on U87MG-EGFRvIII cells
T3 construct: whole, on cells; the cell line is named under assay; also called hEGFRvIII; U87MG-hEGFRvIII
Procedure: as §1

B1: Chimeric antibody c63A10A7 (antibody, human IgG1, V domains shown)
VH: QVQLQQSGAELARPGASVKMSCKASGYTFISFTMHWVKQRPGQGLEWIGYINPNSGYTKYNQKFKDKATLTAGQSSSTAYMQLSSLTSEDSAVYYCTRGGGRGFAYWGQGTLVTVSA
VL: DILMTQSPSSMSVSLGDTVTITCHASQDINSNIGWLQQKPGKSFKALIYHGTNLEDGVPSRFSGSGSGADYSLTISSLESEDFADYYCVQYAQFPFTFGSGTKLEIK
notes: also called chimeric antibody 63A10
mean fluorescence intensity (MFI) [1]: 4730 MFI
mean fluorescence intensity (MFI) [2]: 299 MFI
Selective window (MFIA431/Hepatocytes) [3]: 15.8 ratio

B2: Humanized antibody h63A10A7-23 (antibody, human IgG1, V domains shown)
VH: QVQLVQSGAEVKKPGASVKVSCKASGYTFISFTMHWVKQRPGQGLEWIGYINPNSGYTKYNQKFKDKATLTRDTSTSTVYMELSSLRSEDTAVYYCTRGGGRGFAYWGQGTLVTVSS
VL: DILMTQSPSSLSASVGDRVTITCHASQDINSNIGWLQQKPGKAPKALIYHGTNLEDGVPSRFSGSGSGADYTLTISSLQPEDFATYYCVQYAQFPFTFGQGTKLEIK
notes: Human IgG1 constant region, human kappa constant region
mean fluorescence intensity (MFI) [1]: 4000 MFI
mean fluorescence intensity (MFI) [2]: 661 MFI
Selective window (MFIA431/Hepatocytes) [3]: 6 ratio

B3: Humanized antibody h63A10A7-24 (antibody, human IgG1, V domains shown)
VH: B2 VH
VL: B2 VL with A43S, P44F, A69T
notes: as for B2
mean fluorescence intensity (MFI) [1]: 9860 MFI
mean fluorescence intensity (MFI) [2]: 502 MFI
Selective window (MFIA431/Hepatocytes) [3]: 19.6 ratio

B4: Humanized antibody h63A10A7-17 (antibody, human IgG1, V domains shown)
VH: B2 VH
VL: B2 VL with A43S, P44F
notes: as for B2
mean fluorescence intensity (MFI) [1]: 10600 MFI
mean fluorescence intensity (MFI) [2]: 677 MFI
Selective window (MFIA431/Hepatocytes) [3]: 15.6 ratio

B5: Humanized antibody h63A10A7-19 (antibody, human IgG1, V domains shown)
VH: B2 VH with I48M, L70M
VL: B2 VL with A43S, P44F
notes: as for B2
mean fluorescence intensity (MFI) [1]: 3830 MFI
mean fluorescence intensity (MFI) [2]: 439 MFI
Selective window (MFIA431/Hepatocytes) [3]: 8.7 ratio

B6: Humanized antibody h63A10A7-37 (antibody, human IgG1, V domains shown)
VH: B2 VH with I48M, L70M
VL: B2 VL with L3Q, A43S, P44F
notes: as for B2
mean fluorescence intensity (MFI) [1]: 1320 MFI
mean fluorescence intensity (MFI) [2]: 265 MFI
Selective window (MFIA431/Hepatocytes) [3]: 5 ratio

B7: Humanized antibody h63A10A7-26 (antibody, human IgG1, V domains shown)
VH: B2 VH
VL: B2 VL with L36Y, A43S, P44F, Y71F
notes: as for B2
mean fluorescence intensity (MFI) [1]: 6130 MFI
mean fluorescence intensity (MFI) [2]: 435 MFI
Selective window (MFIA431/Hepatocytes) [3]: 14.1 ratio

B8: Humanized antibody h63A10A7-38 (antibody, human IgG1, V domains shown)
VH: B2 VH with K38R, R40A
VL: B2 VL with L3Q, A43S, P44F
notes: as for B2
mean fluorescence intensity (MFI) [1]: 1060 MFI
mean fluorescence intensity (MFI) [2]: 254 MFI
Selective window (MFIA431/Hepatocytes) [3]: 4.2 ratio

B9: Humanized antibody h63A10A7-21 (antibody, human IgG1, V domains shown)
VH: B2 VH with K67R, A68V
VL: B2 VL with A43S, P44F
notes: as for B2
mean fluorescence intensity (MFI) [1]: 7930 MFI
mean fluorescence intensity (MFI) [2]: 568 MFI
Selective window (MFIA431/Hepatocytes) [3]: 14 ratio

B10: Humanized antibody h63A10A7-25 (antibody, human IgG1, V domains shown)
VH: B2 VH
VL: B2 VL with L36Y, A43S, P44F
notes: as for B2
mean fluorescence intensity (MFI) [1]: 7360 MFI
mean fluorescence intensity (MFI) [2]: 433 MFI
Selective window (MFIA431/Hepatocytes) [3]: 17 ratio

B12: Humanized antibody h63A10A7-18 (antibody, human IgG1, V domains shown)
VH: B2 VH with R72A, T74Q, V79A
VL: B2 VL with A43S, P44F
notes: as for B2
mean fluorescence intensity (MFI) [1]: 9140 MFI
mean fluorescence intensity (MFI) [2]: 553 MFI
Selective window (MFIA431/Hepatocytes) [3]: 16.5 ratio

B13: Humanized antibody h63A10A7-22 (antibody, human IgG1, V domains shown)
VH: B2 VH
VL: B2 VL with L3Q, A43S, P44F
notes: as for B2
mean fluorescence intensity (MFI) [1]: 9380 MFI
mean fluorescence intensity (MFI) [2]: 592 MFI
Selective window (MFIA431/Hepatocytes) [3]: 15.8 ratio

B14: Humanized antibody h63A10A7-20 (antibody, human IgG1, V domains shown)
VH: B2 VH with K38R, R40A
VL: B2 VL with A43S, P44F
notes: as for B2
mean fluorescence intensity (MFI) [1]: 7460 MFI
mean fluorescence intensity (MFI) [2]: 486 MFI
Selective window (MFIA431/Hepatocytes) [3]: 15.4 ratio

Other lines, results leading:

mean fluorescence intensity (MFI) [1]: 1960 MFI
mean fluorescence intensity (MFI) [2]: 261 MFI
Selective window (MFIA431/Hepatocytes) [3]: 7.5 ratio
B11: Humanized antibody h63A10A7-39 (antibody, human IgG1, V domains shown)
VH: B2 VH with K67R, A68V
VL: B2 VL with L3Q, A43S, P44F
notes: as for B2

EC50 [4]: 0.51 nM
Maximum OD450 value [4]: 3.44 OD450
EC50 [5]: 5.6 nM
Maximum mean fluorescence intensity [5]: 18600 MFI
B15: Humanized antibody h75G7C6-3 (antibody, human IgG1, V domains shown)
VH: EVQLVQSGAEVKKPGASVKVSCKASGYTFTDYNMDWVKQAPGQGLEWIGDINPNNADTIYNQKFKGRVTLTVDKSTSTVYMELSSLRSEDTAVYYCARGDYDGYYPVYYAMDYWGQGTTVTVSS
VL: ENVLTQSPATLSLSPGERATLSCRASSSVSSSYLHWYQQKPGQSPRLLIFSTSNLAAGIPARFSGSGSGTDYTLTISSLEPEDFAVYYCQQYSGYPLTFGGGTKVEIK

EC50 [4]: 2 nM
Maximum OD450 value [4]: 2.72 OD450
EC50 [5]: 11.6 nM
Maximum mean fluorescence intensity [5]: 17600 MFI
B16: Humanized antibody h75G7C6-8 (antibody, human IgG1, V domains shown)
VH: B15 VH with E1Q, K38R, I48M, L70M, V72R, K74T
VL: B15 VL with I59V

EC50 [4]: 0.45 nM
Maximum OD450 value [4]: 3.37 OD450
EC50 [5]: 5.57 nM
Maximum mean fluorescence intensity [5]: 18700 MFI
B17: Humanized antibody h75G7C6-4 (antibody, human IgG1, V domains shown)
VH: B15 VH
VL: B15 VL with I59V

EC50 [4]: 1.1 nM
Maximum OD450 value [4]: 2.97 OD450
EC50 [5]: 5.74 nM
Maximum mean fluorescence intensity [5]: 17200 MFI
B18: Humanized antibody h75G7C6-7 (antibody, human IgG1, V domains shown)
VH: B15 VH with E1Q, K38R, I48M, L70M, V72R, K74T
VL: B15 VL

EC50 [4]: 0.68 nM
Maximum OD450 value [4]: 3.2 OD450
EC50 [5]: 5.96 nM
Maximum mean fluorescence intensity [5]: 17100 MFI
B19: Humanized antibody h75G7C6-6 (antibody, human IgG1, V domains shown)
VH: B15 VH with E1Q, K38R, I48M, L70M, V72R, K74T
VL: B15 VL with S44A

EC50 [6]: 0.67 nM
Maximum OD450 value [6]: 2.96 OD450
EC50 [7]: 5.11 nM
Maximum mean fluorescence intensity [7]: 17600 MFI
B20: Humanized antibody h75G7C6-11 (antibody, human IgG1, V domains shown)
VH: B15 VH with E1Q, K38R, K74T
VL: B15 VL
notes: also called VH-g1/VL-g2

EC50 [6]: 0.57 nM
Maximum OD450 value [6]: 2.73 OD450
EC50 [7]: 5.2 nM
Maximum mean fluorescence intensity [7]: 17800 MFI
B21: Humanized antibody h75G7C6-12 (antibody, human IgG1, V domains shown)
VH: B15 VH with E1Q, K38R, K74T
VL: B15 VL with I59V
notes: also called VH-g1/VL-g3
